Experimental data from patent US20240239915A1 (Zymeworks, published 2024).
Substitutions are numbered along the chain they refer to. In names and notes the source's numbering stands. Like-named read-outs stand apart in the source and are kept apart here.

B1: LALA variant of the anti-LPS antibody O11-1111 (IgG1) (antibody)
heavy: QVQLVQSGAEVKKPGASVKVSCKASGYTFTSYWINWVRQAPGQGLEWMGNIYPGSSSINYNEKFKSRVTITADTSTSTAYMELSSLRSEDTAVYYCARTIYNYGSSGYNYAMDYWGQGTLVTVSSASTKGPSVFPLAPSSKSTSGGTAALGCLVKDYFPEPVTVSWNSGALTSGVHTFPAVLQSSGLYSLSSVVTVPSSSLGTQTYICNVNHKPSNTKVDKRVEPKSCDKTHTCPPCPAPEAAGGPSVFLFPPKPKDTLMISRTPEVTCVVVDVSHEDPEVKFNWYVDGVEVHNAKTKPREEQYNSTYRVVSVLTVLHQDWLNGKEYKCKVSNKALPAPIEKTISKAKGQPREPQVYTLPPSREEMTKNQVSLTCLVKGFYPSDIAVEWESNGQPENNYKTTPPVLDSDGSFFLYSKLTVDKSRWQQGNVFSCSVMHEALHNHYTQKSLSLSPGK
light: DIVMTQSPDSLAVSLGERATINCKASENVGNSVSWYQQKPGQPPKLLIYGASNRYTGVPDRFSGSGSGTDFTLTISSLQAEDVAVYYCGQSYSYPYTFGQGTKVEIKRTVAAPSVFIFPPSDEQLKSGTASVVCLLNNFYPREAKVQWKVDNALQSGNSQESVTEQDSKDSTYSLSSTLTLSKADYEKHKVYACEVTHQGLSSPVTKSFNRGEC
notes: LALA substitutions in EU numbering; also called Anti-LPS Antibody LALA
B2: L234A/L235A/D265G/P329A (LALA-DGPA) variant of IgG1 WT of the anti-EGFR antibody panitumumab (antibody)
heavy: QVQLQESGPGLVKPSETLSLTCTVSGGSVSSGDYYWTWIRQSPGKGLEWIGHIYYSGNTNYNPSLKSRLTISIDTSKTQFSLKLSSVTAADTAIYYCVRDRVTGAFDIWGQGTMVTVSSASTKGPSVFPLAPSSKSTSGGTAALGCLVKDYFPEPVTVSWNSGALTSGVHTFPAVLQSSGLYSLSSVVTVPSSSLGTQTYICNVNHKPSNTKVDKRVEPKSCDKTHTCPPCPAPEAAGGPSVFLFPPKPKDTLMISRTPEVTCVVVGVSHEDPEVKFNWYVDGVEVHNAKTKPREEQYNSTYRVVSVLTVLHQDWLNGKEYKCKVSNKALAAPIEKTISKAKGQPREPQVYTLPPSREEMTKNQVSLTCLVKGFYPSDIAVEWESNGQPENNYKTTPPVLDSDGSFFLYSKLTVDKSRWQQGNVFSCSVMHEALHNHYTQKSLSLSPGK
light: not shown
notes: Positions are EU numbers
B3: L234A/L235A/D265Q (LALA-DQ) variant of IgG1 WT of the anti-EGFR antibody panitumumab (antibody)
heavy: B2 heavy with G267Q, A331P
light: not shown
notes: Mutations in both CH2 domains; positions are EU numbers
B4: L234A/L235A/D265T (LALA-DT) variant of IgG1 WT of the anti-EGFR antibody panitumumab (antibody)
heavy: B2 heavy with G267T, A331P
light: not shown
notes: as for B3
B5: L234A/L235A/P329G (LALA-PG) variant of IgG1 WT of the anti-EGFR antibody panitumumab (antibody)
heavy: B2 heavy with G267D, A331G
light: not shown
notes: as for B3
B6: L234A/L235A/D265N (LALA-DN) variant of IgG1 WT of the anti-EGFR antibody panitumumab (antibody)
heavy: B2 heavy with G267N, A331P
light: not shown
notes: as for B3

What was measured:
[1] = target: T1, Recombinant Human Fc gamma RIIIB/CD16b Protein (R&D Systems), His-tagged (human, UniProt O75015 20-208); assay: SPR (Biacore T200); receptor immobilized directly on CM5 chip, antibody as analyte at 4.7 µM
T1 construct: also called human FcγRIIIb; hFcγRIIIb
T1 chain: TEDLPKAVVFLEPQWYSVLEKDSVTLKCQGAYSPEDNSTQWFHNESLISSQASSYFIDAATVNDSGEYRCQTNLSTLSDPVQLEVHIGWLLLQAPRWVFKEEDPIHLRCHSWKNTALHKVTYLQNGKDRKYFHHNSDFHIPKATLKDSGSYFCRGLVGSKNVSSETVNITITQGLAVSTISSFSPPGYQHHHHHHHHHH

[2] = target: T2, human FcRn (human neonatal Fc receptor large subunit p51 and beta2-microglobulin), biotinylated (human, UniProt P55899 24-297; P61769 21-119, biotinylated (site not stated)); assay: BLI (Octet RED384), biotinylated FcRn on streptavidin biosensor, binding at pH 6.0, dissociation at pH 7.4
T2 sequence (P55899 24-297 limits assumed, chain 1 of 2): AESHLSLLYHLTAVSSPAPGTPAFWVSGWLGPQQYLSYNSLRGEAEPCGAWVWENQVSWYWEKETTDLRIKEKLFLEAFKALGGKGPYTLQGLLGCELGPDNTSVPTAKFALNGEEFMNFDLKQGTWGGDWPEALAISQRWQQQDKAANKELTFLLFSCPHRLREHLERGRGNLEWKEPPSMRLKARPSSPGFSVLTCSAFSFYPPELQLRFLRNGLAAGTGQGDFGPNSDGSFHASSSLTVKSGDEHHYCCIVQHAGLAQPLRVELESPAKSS
T2 sequence (P61769 21-119 limits assumed, chain 2 of 2): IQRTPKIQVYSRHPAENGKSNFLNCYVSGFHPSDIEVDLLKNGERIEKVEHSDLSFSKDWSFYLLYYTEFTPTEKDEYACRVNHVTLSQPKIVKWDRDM

[3] = target: T2, human FcRn (human neonatal Fc receptor …); assay: BLI (Octet RED384), biotinylated FcRn on streptavidin biosensor, binding and dissociation at pH 6.0
[4] = target: T3, Recombinant Cynomolgus Fc gamma RIII/CD16 Protein (R&D Systems), His-tagged (cynomolgus, UniProt Q8SPW2 17-208); assay: SPR (Biacore T200); receptor immobilized directly on CM5 chip, antibody as analyte at 4.7 µM
T3 construct: also called cynomolgus FcγRIII; cFcγRIII
T3 chain: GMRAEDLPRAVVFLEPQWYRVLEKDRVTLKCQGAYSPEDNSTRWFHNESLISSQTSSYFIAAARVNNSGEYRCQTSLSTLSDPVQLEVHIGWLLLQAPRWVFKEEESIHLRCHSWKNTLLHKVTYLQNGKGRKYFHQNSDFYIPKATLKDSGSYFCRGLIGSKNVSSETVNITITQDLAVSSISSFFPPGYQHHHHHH

[5] = target: T4, Recombinant Cynomolgus Fc gamma RIIA/CD32a Protein (R&D Systems), His-tagged (cynomolgus); assay: as above
T4 construct: also called cynomolgus FcγRIIa; cFcγRIIa
T4 chain: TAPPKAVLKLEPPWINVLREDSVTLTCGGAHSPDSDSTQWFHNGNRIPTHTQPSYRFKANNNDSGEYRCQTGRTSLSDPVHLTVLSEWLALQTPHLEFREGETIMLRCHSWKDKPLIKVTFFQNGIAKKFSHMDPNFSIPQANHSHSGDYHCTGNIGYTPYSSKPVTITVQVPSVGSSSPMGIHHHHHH

[6] = target: T5, Recombinant Cynomolgus Fc gamma RIIB protein (R&D Systems), His-tagged (cynomolgus); assay: as above
T5 construct: also called cynomolgus FcγRIIb; cFcγRIIb
T5 chain: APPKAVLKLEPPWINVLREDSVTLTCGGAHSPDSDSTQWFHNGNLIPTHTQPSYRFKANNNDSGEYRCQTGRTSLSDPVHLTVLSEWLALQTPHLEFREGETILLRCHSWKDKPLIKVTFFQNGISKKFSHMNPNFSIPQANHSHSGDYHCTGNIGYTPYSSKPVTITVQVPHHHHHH

[7] = target: T6, Recombinant Cynomolgus Monkey Fc gamma RI/CD64 Protein, CF (R&D Systems), His-tagged (cynomolgus, UniProt P12314 11-288 (human entry)); assay: SPR (Biacore T200), RU at 4.7 µM antibody
T6 construct: also called cynomolgus FcγRI; cFcγRI
T6 chain: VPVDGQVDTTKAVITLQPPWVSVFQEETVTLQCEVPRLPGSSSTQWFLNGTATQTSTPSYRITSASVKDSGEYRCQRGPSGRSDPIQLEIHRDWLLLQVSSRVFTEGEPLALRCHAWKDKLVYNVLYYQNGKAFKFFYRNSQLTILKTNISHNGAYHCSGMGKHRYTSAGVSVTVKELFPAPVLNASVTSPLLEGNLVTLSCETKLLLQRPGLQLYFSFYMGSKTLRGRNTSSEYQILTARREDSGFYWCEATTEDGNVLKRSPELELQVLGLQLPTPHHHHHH

[8] = target: T7, Recombinant Human Fc gamma RIIIA/CD16a (V176F) Protein (R&D Systems), His-tagged (human, UniProt P08637 17-208); assay: SPR (Biacore T200); receptor immobilized directly on CM5 chip, antibody as analyte at 4.7 µM
T7 construct: no further substitution applied; also called human FcγRIIIa (V176F); hFcγRIIIa (V176F)
T7 sequence (P08637 other isoform, or with tags, fused parts or gaps V176F V176F): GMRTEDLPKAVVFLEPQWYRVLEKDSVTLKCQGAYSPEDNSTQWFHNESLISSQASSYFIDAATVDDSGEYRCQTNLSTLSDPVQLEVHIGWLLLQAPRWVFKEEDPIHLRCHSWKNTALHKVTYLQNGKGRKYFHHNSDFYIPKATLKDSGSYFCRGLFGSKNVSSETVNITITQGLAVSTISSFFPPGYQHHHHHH

[9] = target: T8, Recombinant Human Fc gamma RIIB/C (CD32b/c) Protein (R&D Systems), His-tagged (human, UniProt P31994 46-217); assay: as above
T8 construct: also called human FcγRIIb/c; hFcγRIIb/c
T8 sequence: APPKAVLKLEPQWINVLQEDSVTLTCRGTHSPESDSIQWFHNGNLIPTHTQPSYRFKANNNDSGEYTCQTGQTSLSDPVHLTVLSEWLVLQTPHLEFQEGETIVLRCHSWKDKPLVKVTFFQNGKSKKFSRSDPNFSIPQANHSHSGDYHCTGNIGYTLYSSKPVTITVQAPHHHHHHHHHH

[10] = target: T9, Recombinant Human Fc gamma RIIA/CD32a (H167) Protein (R&D Systems), His-tagged (human, UniProt P12318 34-218); assay: as above
T9 construct: also called human FcγRIIa (H167); hFcγRIIa (H167)
T9 sequence: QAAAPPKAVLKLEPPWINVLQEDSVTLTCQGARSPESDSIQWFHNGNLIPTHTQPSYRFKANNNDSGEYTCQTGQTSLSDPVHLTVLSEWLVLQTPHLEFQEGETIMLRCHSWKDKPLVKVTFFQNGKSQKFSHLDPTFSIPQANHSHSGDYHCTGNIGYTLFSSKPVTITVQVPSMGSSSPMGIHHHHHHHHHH

[11] = target: T1, Recombinant Human Fc gamma RIIIB/CD16b …; assay: as above
[12] = target: T10, Recombinant Human Fc gamma RIIIA/CD16a protein (R&D Systems), His-tagged (human, UniProt P08637 17-208); assay: as above
T10 construct: also called human FcγRIIIa; hFcγRIIIa
T10 sequence (P08637 other isoform, or with tags, fused parts or gaps): as the sequence (P08637 other isoform, or with tags, fused parts or gaps V176F V176F) above, with F160V counted along it

[13] = target: T7, Recombinant Human Fc gamma RIIIA/CD16a …; assay: as above; remark: listed apart in the source
[14] = target: T8, Recombinant Human Fc gamma RIIB/C …; assay: as above; remark: listed apart in the source
[15] = target: T9, Recombinant Human Fc gamma RIIA/CD32a …; assay: as above; remark: listed apart in the source
[16] = target: T1, Recombinant Human Fc gamma RIIIB/CD16b …; assay: as above
[17] = target: T10, Recombinant Human Fc gamma RIIIA/CD16a …; assay: as above; remark: listed apart in the source
[18] = target: T3, Recombinant Cynomolgus Fc gamma …; assay: as above
[19] = target: T4, Recombinant Cynomolgus Fc gamma …; assay: as above
[20] = target: T5, Recombinant Cynomolgus Fc gamma RIIB …; assay: as above
[21] = target: T6, Recombinant Cynomolgus Monkey Fc gamma …; assay: SPR (Biacore T200); His-tagged receptor captured on anti-His antibody chip, antibody as analyte at 4.7 µM

Binder | binding response (RU) [4] [RU] | binding response (RU) [5] [RU] | binding response (RU) [6] [RU] | RU value relative to the LALA-DA variant [7] [fold] | binding response (RU) [8] [RU] | binding response (RU) [9] [RU] | binding response (RU) [10] [RU] | binding response (RU) [11] [RU] | binding response (RU) [12] [RU] | other results
B1 |  |  |  |  |  |  |  |  |  | binding response (RU) [1]: -1.4 RU
B2 |  |  |  |  |  |  |  |  |  | koff [2]: 2.3 s⁻¹; Kd [3]: 5 nM
B3 | 3.5 | 22 | 89 | ≥ 1.4 | -3.5 | 15 | 34 | -0.6 | -2.1 | 
B4 | 4.8 | 24 | 93 | ≥ 1.4 | -3.6 | 15 | 37 | -0.2 | -1.4 | 
B5 |  |  |  |  |  |  |  |  |  | binding response (RU) [13]: -0.8 RU; binding response (RU) [14]: 19 RU; binding response (RU) [15]: 19 RU; binding response (RU) [16]: -0.4 RU; binding response (RU) [17]: -0.7 RU; binding response (RU) [18]: 10 RU; binding response (RU) [19]: 23 RU; binding response (RU) [20]: 110 RU; binding response (RU) [21]: 1300 RU
B6 | 3.1 | 19 | 85 |  | -5 | 14 | 21 | -1 | -3.3 | 
